Measurements as given in patent US20130315910A1 (Xencor, published 2013).

T1: human FcγRIIb receptor protein (R&D Systems) (human, UniProt P31994 46-217)
T1 construct: Bought protein injected over captured antibody in Biacore; also called CD32b
T1 sequence (looked up): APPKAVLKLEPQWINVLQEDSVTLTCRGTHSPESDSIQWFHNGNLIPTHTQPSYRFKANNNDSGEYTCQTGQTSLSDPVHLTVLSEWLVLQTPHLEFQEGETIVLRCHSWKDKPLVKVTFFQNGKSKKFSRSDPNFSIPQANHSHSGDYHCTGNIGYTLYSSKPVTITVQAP

T2: mFcγRIIb (Mus musculus, UniProt P08101)
T2 construct: extracellular region, C-terminal His- and GST-tag; also called mouse FcγRII
T2 sequence (receptor extracellular region, looked up): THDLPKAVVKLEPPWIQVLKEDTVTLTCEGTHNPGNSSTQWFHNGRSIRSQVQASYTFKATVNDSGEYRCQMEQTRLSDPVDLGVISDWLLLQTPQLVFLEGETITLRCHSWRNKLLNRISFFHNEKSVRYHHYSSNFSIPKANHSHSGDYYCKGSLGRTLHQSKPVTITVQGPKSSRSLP

T3: cynoFcγRIIb (Macaca fascicularis, UniProt A0A140HDP4)
T3 construct: extracellular region, C-terminal His- and GST-tag; also called cynomolgus monkey FcγRIIb
T3 sequence (receptor extracellular region): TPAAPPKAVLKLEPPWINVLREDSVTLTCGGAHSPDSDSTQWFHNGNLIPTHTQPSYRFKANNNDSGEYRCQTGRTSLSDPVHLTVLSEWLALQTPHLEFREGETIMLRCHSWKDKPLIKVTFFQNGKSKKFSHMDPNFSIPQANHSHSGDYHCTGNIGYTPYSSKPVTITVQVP


Legend:
Experiment in all cases: SPR
[1] = molecular target: T1, human FcγRIIb receptor protein (R&D …)
mFcγRIIb = molecular target: T2, mFcγRIIb
cynoFcγRIIb = molecular target: T3, cynoFcγRIIb

Fold vs WT IgG1 [1] [fold]	Kd [1] [nM]	Fold vs WT IgG1 (Kd) (mFcγRIIb) [fold]	Fold vs WT IgG1 (Kd) (cynoFcγRIIb) [fold]	Binder
53.2	27.6	2.59	27.6	S239D/H268D/L328F/I332E (antibody, human IgG1, kappa, HuAM4G7 anti-CD19 IgG1 (m1) with these Fc substitutions, EU index; copies: 2 + 2) heavy: EVQLVESGGGLVKPGGSLKLSCAASGYTFTSYVMHWVRQAPGKGLEWIGYINPYNDGTKYNEKFQGRVTISSDKSISTAYMELSSLRSEDTAMYYCARGTYYYGTRVFDYWGQGTLVTVSSASTKGPSVFPLAPSSKSTSGGTAALGCLVKDYFPEPVTVSWNSGALTSGVHTFPAVLQSSGLYSLSSVVTVPSSSLGTQTYICNVNHKPSNTKVDKKVEPKSCDKTHTCPPCPAPELLGGPDVFLFPPKPKDTLMISRTPEVTCVVVDVSDEDPEVKFNWYVDGVEVHNAKTKPREEQYNSTYRVVSVLTVLHQDWLNGKEYKCKVSNKAFPAPEEKTISKAKGQPREPQVYTLPPSREEMTKNQVSLTCLVKGFYPSDIAVEWESNGQPENNYKTTPPVLDSDGSFFLYSKLTVDKSRWQQGNVFSCSVMHEALHNHYTQKSLSLSPGK light: DIVMTQSPATLSLSPGERATLSCRSSKSLQNVNGNTYLYWFQQKPGQSPQLLIYRMSNLNSGVPDRFSGSGSGTEFTLTISSLEPEDFAVYYCMQHLEYPITFGAGTKLEIKRTVAAPSVFIFPPSDEQLKSGTASVVCLLNNFYPREAKVQWKVDNALQSGNSQESVTEQDSKDSTYSLSSTLTLSKADYEKHKVYACEVTHQGLSSPVTKSFNRGEC
51.1	28.7	47.8	23.7	S239D/H268D/L328W (antibody, human IgG1, kappa, HuAM4G7 anti-CD19 IgG1 (m1) with these Fc substitutions, EU index; copies: 2 + 2) heavy: EVQLVESGGGLVKPGGSLKLSCAASGYTFTSYVMHWVRQAPGKGLEWIGYINPYNDGTKYNEKFQGRVTISSDKSISTAYMELSSLRSEDTAMYYCARGTYYYGTRVFDYWGQGTLVTVSSASTKGPSVFPLAPSSKSTSGGTAALGCLVKDYFPEPVTVSWNSGALTSGVHTFPAVLQSSGLYSLSSVVTVPSSSLGTQTYICNVNHKPSNTKVDKKVEPKSCDKTHTCPPCPAPELLGGPDVFLFPPKPKDTLMISRTPEVTCVVVDVSDEDPEVKFNWYVDGVEVHNAKTKPREEQYNSTYRVVSVLTVLHQDWLNGKEYKCKVSNKAWPAPIEKTISKAKGQPREPQVYTLPPSREEMTKNQVSLTCLVKGFYPSDIAVEWESNGQPENNYKTTPPVLDSDGSFFLYSKLTVDKSRWQQGNVFSCSVMHEALHNHYTQKSLSLSPGK light: DIVMTQSPATLSLSPGERATLSCRSSKSLQNVNGNTYLYWFQQKPGQSPQLLIYRMSNLNSGVPDRFSGSGSGTEFTLTISSLEPEDFAVYYCMQHLEYPITFGAGTKLEIKRTVAAPSVFIFPPSDEQLKSGTASVVCLLNNFYPREAKVQWKVDNALQSGNSQESVTEQDSKDSTYSLSSTLTLSKADYEKHKVYACEVTHQGLSSPVTKSFNRGEC
27.8	52.7	4.81	4.55	S239D/H268D/L328W/I332E (antibody, human IgG1, kappa, HuAM4G7 anti-CD19 IgG1 (m1) with these Fc substitutions, EU index; copies: 2 + 2) heavy: EVQLVESGGGLVKPGGSLKLSCAASGYTFTSYVMHWVRQAPGKGLEWIGYINPYNDGTKYNEKFQGRVTISSDKSISTAYMELSSLRSEDTAMYYCARGTYYYGTRVFDYWGQGTLVTVSSASTKGPSVFPLAPSSKSTSGGTAALGCLVKDYFPEPVTVSWNSGALTSGVHTFPAVLQSSGLYSLSSVVTVPSSSLGTQTYICNVNHKPSNTKVDKKVEPKSCDKTHTCPPCPAPELLGGPDVFLFPPKPKDTLMISRTPEVTCVVVDVSDEDPEVKFNWYVDGVEVHNAKTKPREEQYNSTYRVVSVLTVLHQDWLNGKEYKCKVSNKAWPAPEEKTISKAKGQPREPQVYTLPPSREEMTKNQVSLTCLVKGFYPSDIAVEWESNGQPENNYKTTPPVLDSDGSFFLYSKLTVDKSRWQQGNVFSCSVMHEALHNHYTQKSLSLSPGK light: DIVMTQSPATLSLSPGERATLSCRSSKSLQNVNGNTYLYWFQQKPGQSPQLLIYRMSNLNSGVPDRFSGSGSGTEFTLTISSLEPEDFAVYYCMQHLEYPITFGAGTKLEIKRTVAAPSVFIFPPSDEQLKSGTASVVCLLNNFYPREAKVQWKVDNALQSGNSQESVTEQDSKDSTYSLSSTLTLSKADYEKHKVYACEVTHQGLSSPVTKSFNRGEC
54.1	27.1	3.04	9.1	S239D/H268D/L328Y/I332E (antibody, human IgG1, kappa, HuAM4G7 anti-CD19 IgG1 (m1) with these Fc substitutions, EU index; copies: 2 + 2) heavy: EVQLVESGGGLVKPGGSLKLSCAASGYTFTSYVMHWVRQAPGKGLEWIGYINPYNDGTKYNEKFQGRVTISSDKSISTAYMELSSLRSEDTAMYYCARGTYYYGTRVFDYWGQGTLVTVSSASTKGPSVFPLAPSSKSTSGGTAALGCLVKDYFPEPVTVSWNSGALTSGVHTFPAVLQSSGLYSLSSVVTVPSSSLGTQTYICNVNHKPSNTKVDKKVEPKSCDKTHTCPPCPAPELLGGPDVFLFPPKPKDTLMISRTPEVTCVVVDVSDEDPEVKFNWYVDGVEVHNAKTKPREEQYNSTYRVVSVLTVLHQDWLNGKEYKCKVSNKAYPAPEEKTISKAKGQPREPQVYTLPPSREEMTKNQVSLTCLVKGFYPSDIAVEWESNGQPENNYKTTPPVLDSDGSFFLYSKLTVDKSRWQQGNVFSCSVMHEALHNHYTQKSLSLSPGK light: DIVMTQSPATLSLSPGERATLSCRSSKSLQNVNGNTYLYWFQQKPGQSPQLLIYRMSNLNSGVPDRFSGSGSGTEFTLTISSLEPEDFAVYYCMQHLEYPITFGAGTKLEIKRTVAAPSVFIFPPSDEQLKSGTASVVCLLNNFYPREAKVQWKVDNALQSGNSQESVTEQDSKDSTYSLSSTLTLSKADYEKHKVYACEVTHQGLSSPVTKSFNRGEC
24.4	60.1	48.6	22.2	S239D/H268D/L328Y (antibody, human IgG1, kappa, HuAM4G7 anti-CD19 IgG1 (m1) with these Fc substitutions, EU index; copies: 2 + 2) heavy: EVQLVESGGGLVKPGGSLKLSCAASGYTFTSYVMHWVRQAPGKGLEWIGYINPYNDGTKYNEKFQGRVTISSDKSISTAYMELSSLRSEDTAMYYCARGTYYYGTRVFDYWGQGTLVTVSSASTKGPSVFPLAPSSKSTSGGTAALGCLVKDYFPEPVTVSWNSGALTSGVHTFPAVLQSSGLYSLSSVVTVPSSSLGTQTYICNVNHKPSNTKVDKKVEPKSCDKTHTCPPCPAPELLGGPDVFLFPPKPKDTLMISRTPEVTCVVVDVSDEDPEVKFNWYVDGVEVHNAKTKPREEQYNSTYRVVSVLTVLHQDWLNGKEYKCKVSNKAYPAPIEKTISKAKGQPREPQVYTLPPSREEMTKNQVSLTCLVKGFYPSDIAVEWESNGQPENNYKTTPPVLDSDGSFFLYSKLTVDKSRWQQGNVFSCSVMHEALHNHYTQKSLSLSPGK light: DIVMTQSPATLSLSPGERATLSCRSSKSLQNVNGNTYLYWFQQKPGQSPQLLIYRMSNLNSGVPDRFSGSGSGTEFTLTISSLEPEDFAVYYCMQHLEYPITFGAGTKLEIKRTVAAPSVFIFPPSDEQLKSGTASVVCLLNNFYPREAKVQWKVDNALQSGNSQESVTEQDSKDSTYSLSSTLTLSKADYEKHKVYACEVTHQGLSSPVTKSFNRGEC
21.7	67.7	26.5	5.87	S239D/H268E/L328Y (antibody, human IgG1, kappa, HuAM4G7 anti-CD19 IgG1 (m1) with these Fc substitutions, EU index; copies: 2 + 2) heavy: EVQLVESGGGLVKPGGSLKLSCAASGYTFTSYVMHWVRQAPGKGLEWIGYINPYNDGTKYNEKFQGRVTISSDKSISTAYMELSSLRSEDTAMYYCARGTYYYGTRVFDYWGQGTLVTVSSASTKGPSVFPLAPSSKSTSGGTAALGCLVKDYFPEPVTVSWNSGALTSGVHTFPAVLQSSGLYSLSSVVTVPSSSLGTQTYICNVNHKPSNTKVDKKVEPKSCDKTHTCPPCPAPELLGGPDVFLFPPKPKDTLMISRTPEVTCVVVDVSEEDPEVKFNWYVDGVEVHNAKTKPREEQYNSTYRVVSVLTVLHQDWLNGKEYKCKVSNKAYPAPIEKTISKAKGQPREPQVYTLPPSREEMTKNQVSLTCLVKGFYPSDIAVEWESNGQPENNYKTTPPVLDSDGSFFLYSKLTVDKSRWQQGNVFSCSVMHEALHNHYTQKSLSLSPGK light: DIVMTQSPATLSLSPGERATLSCRSSKSLQNVNGNTYLYWFQQKPGQSPQLLIYRMSNLNSGVPDRFSGSGSGTEFTLTISSLEPEDFAVYYCMQHLEYPITFGAGTKLEIKRTVAAPSVFIFPPSDEQLKSGTASVVCLLNNFYPREAKVQWKVDNALQSGNSQESVTEQDSKDSTYSLSSTLTLSKADYEKHKVYACEVTHQGLSSPVTKSFNRGEC
